T1: mouse TNFR2-Fc (mouse, UniProt P25119 23-258)
T1 construct: mouse TNF receptor 2 (TNFR2) as an Fc fusion protein; neither the source of the protein nor the kind of Fc is told; Also used here as the TNFR2 of the functional rows (BV-2 cells, T cells, sTNFR2); also called mTNFR2-Fc
T1 sequence (looked up): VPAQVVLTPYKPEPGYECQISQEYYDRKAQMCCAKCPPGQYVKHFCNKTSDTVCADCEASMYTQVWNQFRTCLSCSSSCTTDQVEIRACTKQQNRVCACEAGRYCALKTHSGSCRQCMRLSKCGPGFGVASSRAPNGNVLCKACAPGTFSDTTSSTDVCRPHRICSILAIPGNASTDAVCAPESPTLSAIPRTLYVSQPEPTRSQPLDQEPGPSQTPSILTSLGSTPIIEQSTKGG

T2: mouse TNFR1-Fc (mouse, UniProt P25118 30-212)
T2 construct: mouse TNF receptor 1 (TNFR1) as an Fc fusion protein; neither the source of the protein nor the kind of Fc is told; Also used here as the TNFR1 of the L929 functional rows; also called mTNFR1-Fc
T2 sequence (looked up): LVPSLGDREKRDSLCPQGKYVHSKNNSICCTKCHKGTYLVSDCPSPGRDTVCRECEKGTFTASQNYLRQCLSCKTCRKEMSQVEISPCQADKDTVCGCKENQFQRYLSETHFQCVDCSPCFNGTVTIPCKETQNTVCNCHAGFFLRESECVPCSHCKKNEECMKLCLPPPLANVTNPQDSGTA


Tests used:
[1] = target: the molecule itself; experiment: SDS-PAGE under non-reducing conditions; 2 µg purified fusion protein, 8% SDS-PAGE with and without 2-ME, Coomassie staining; disulfide-linked dimer
mouse TNFR2-Fc [2] = target: T1, mouse TNFR2-Fc; experiment: ELISA; mouse TNFR1-Fc or TNFR2-Fc coated at 1 µg/ml in PBS; fusion proteins in 2% skim milk powder in PBS, 1 h at RT; detected with anti-TNF (HP8001) or anti-his-tag antibody and HRP-conjugated secondary antibody; conditions: both partners purified
mouse TNFR2-Fc [3] = target: T1, mouse TNFR2-Fc; experiment: quartz crystal microbalance; TNFR2-Fc chemically immobilised on a carboxyl sensor chip at high density (270 Hz); PBST (PBS, 0.1% Tween 20) pH 7.4, 37°C; analytes 2 to 32 nM; Kd = koff/kon assuming 1:1 binding; conditions: both partners purified
mouse TNFR1-Fc = target: T2, mouse TNFR1-Fc; experiment: ELISA; mouse TNFR1-Fc or TNFR2-Fc coated at 1 µg/ml in PBS; fusion proteins in 2% skim milk powder in PBS, 1 h at RT; detected with anti-TNF (HP8001) or anti-his-tag antibody and HRP-conjugated secondary antibody; conditions: both partners purified

EC50 (mouse TNFR2-Fc [2]) [pM] | Kd (mouse TNFR2-Fc [3]) [pM] | kon (mouse TNFR2-Fc [3]) [M⁻¹ s⁻¹] | binding result (mouse TNFR1-Fc) | Binder | stoichiometry N [1]
53 | 890 | 589000 |  | IL2-EHD2-sc-mTNFR2 (ligand) APTSSSTSSSTAEAQQQQQQQQQQQQHLEQLLMDLQELLSRMENYRNLKLPRMLTFKFYLPKQATELKDLQCLEDELGPLRHVLDLTQSKSFQLEDAENFISNIRVTVVKLKGSDNTFECQFDDESATVVDFLRRWIAFCQSIISTSPQPTVKILQSSCDGGGHFPPTIQLLCLVSGYTPGTINITWLEDGQVMDVDLSTASTTQEGELASTQSELTLSQKHWLSDRTYTCQVTYQGHTFEDSTKKCAPVAHVVANHQVEEQLEWLSQRANALLANGMDLKDNQLVVPADGLYLVYSQVLFKGQGCPDYVLLTHTVSRFAISYQEKVNLLSAVKSPCPKDTPEGAELKPWYEPIYLGGVFQLEKGDQLSAEVNLPKYLNFRESGQVYFGVIALPVAHVVANHQVEEQLEWLSQRANALLANGMDLKDNQLVVPADGLYLVYSQVLFKGQGCPDYVLLTHTVSRFAISYQEKVNLLSAVKSPCPKDTPEGAELKPWYEPIYLGGVFQLEKGDQLSAEVNLPKYLNFRESGQVYFGVIALPVAHVVANHQVEEQLEWLSQRANALLANGMDLKDNQLVVPADGLYLVYSQVLFKGQGCPDYVLLTHTVSRFAISYQEKVNLLSAVKSPCPKDTPEGAELKPWYEPIYLGGVFQLEKGDQLSAEVNLPKYLNFRESGQVYFGVIAL | 2
31 | 120 | 1.2e+06 |  | EHD2-sc-mTNFR2 (ligand) PTVKILQSSCDGGGHFPPTIQLLCLVSGYTPGTINITWLEDGQVMDVDLSTASTTQEGELASTQSELTLSQKHWLSDRTYTCQVTYQGHTFEDSTKKCAPVAHVVANHQVEEQLEWLSQRANALLANGMDLKDNQLVVPADGLYLVYSQVLFKGQGCPDYVLLTHTVSRFAISYQEKVNLLSAVKSPCPKDTPEGAELKPWYEPIYLGGVFQLEKGDQLSAEVNLPKYLNFRESGQVYFGVIALPVAHVVANHQVEEQLEWLSQRANALLANGMDLKDNQLVVPADGLYLVYSQVLFKGQGCPDYVLLTHTVSRFAISYQEKVNLLSAVKSPCPKDTPEGAELKPWYEPIYLGGVFQLEKGDQLSAEVNLPKYLNFRESGQVYFGVIALPVAHVVANHQVEEQLEWLSQRANALLANGMDLKDNQLVVPADGLYLVYSQVLFKGQGCPDYVLLTHTVSRFAISYQEKVNLLSAVKSPCPKDTPEGAELKPWYEPIYLGGVFQLEKGDQLSAEVNLPKYLNFRESGQVYFGVIAL | 2
 |  |  | binds | soluble recombinant mouse TNF (ligand, UniProt P06804 80-235, looked up, soluble recombinant mouse tumor necrosis factor (TNF), wild type; Positive control; also called sTNF; wild-type soluble TNF) LRSSSQNSSDKPVAHVVANHQVEEQLEWLSQRANALLANGMDLKDNQLVVPADGLYLVYSQVLFKGQGCPDYVLLTHTVSRFAISYQEKVNLLSAVKSPCPKDTPEGAELKPWYEPIYLGGVFQLEKGDQLSAEVNLPKYLDFAESGQVYFGVIAL | 

Source: PMC6930692, “Superior Treg-Expanding Properties of a Novel Dual-Acting Cytokine Fusion Protein” (Frontiers in Pharmacology, 2019)
